{"source": "paper PMC5336313", "proteins": {"B1": {"name": "human PEBP4 (hPEBP4): T171A (protein)", "parent chain": "MGWTMRLVTAALLLGLMMVVTGDEDENSPCAHEALLDEDTLFCQGLEVFYPELGNIGCKVVPDCNNYRQKITSWMEPIVKFPGAVDGATYILVMVDPDAPSRAEPRQRFWRHWLVTDIKGADLKKGKIQGQELSAYQAPSPPAHSGFHRYQFFVYLQEGKVISLLPKENKTRGSWKMDRFLNRFHLGEPEASTQFMTQNYQDSPTLQAPRERASEPKHKNQAEIAAC"}}, "test": "anti-Myc western blot of cell extracts and culture media", "conditions": "glycan lost; control: wild-type C-terminally tagged full-length PEBP4"}
{"protein": "B1", "values": [{"measurement": "expression_or_secretion", "result": "no change"}]}
